Data on 1 substance can be found in doi:10.1101/2020.04.15.043133.

Like-named read-outs stand apart in the source and are kept apart here.

Assay [1] concerns the target C3d (human) (UniProt P01024). Briefly: SPR.
Assay [2] addresses iC3b biotinylated on the thioester cysteine (UniProt P01024). Briefly: SPR.
The target is the same in assay [3]. Briefly: SPR. This is another data set of the same source.
Assay [4] has as its target CR3 headpiece fragment (integrin αMβ2 headpiece) (human) (UniProt P11215). Briefly: SEC. In general terms: In gel filtration, larger molecules generally elute earlier.

As to “CR3 headpiece fragment (integrin αMβ2 headpiece) (from UniProt P11215 17-773; P05107 23-504) (receptor)”, the Kd (usually a measure of binding affinity in units of concentration) in assay [1] is 515 nM; in assay [2], 30 nM; in assay [3], 6.2 nM. The fold lower koff than in the Mg2+ buffer in assay [3] amounted to 30 fold. For the same substance, the stoichiometry N (as a rule, a count of units in the complex or per binding partner) in assay [4] came to 2.
